According to the nanobody polyreactivity screen of Harvey et al. (2022):

Experiment: yeast display, Sf9 membrane polyspecificity reagent, FACS + sequencing; frameworks hold sequencing errors
Method in brief: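 Polyreactivity labels are assigned by the sorting gate from which each nanobody was recovered. The gates were low and high (top ~1%), set on anti-HA fluorescence for expression and streptavidin fluorescence for reagent binding. Before sorting, galactose-induced (36–48 hours) yeast display cells were stained for 1 hour at 4 °C with 10% biotinylated, detergent-solubilized Sf9 membrane reagent.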

Sequence | polyreactivity (PSR sort gate)
QVQLVESGGGLVQAGGSLRLSCAASGRIFTTYAMGWYRQAPGKEREFVAAINYSGGRTYYAESVKGRFTISRDNAKNTVYLQMISLKPEETAVYYCAARSLFRGDYWGQGTQVTVSS | high polyreactivity
QVQLVESGGGLVQAGGSLRLSCAASGFIFRYYTMGWYRQAPGKERELVAVITSGGTTYYADSVKGRFTISRDNAKNTVYLQMNSLKPEDTAGAADQWTIHRWATYGYWGQGTQVTVSS | low polyreactivity
QVQLVESGGGLDQAGGRLRLSCAAYGSTFELYAMGWYRQAPGKERELVASITGDSTNYADSVKGRFTISRDNAKNTVYLQMNSLKPEDTAVYYCAAEYVPYYEYESWGQGTQVTVSS | low polyreactivity
QVQLVESGGGLVQAGGSLRLSCAASGLTFFLYAMGWYRQAPGKERELVAAISSRGGSTYYADSVKGRFTISRDNAKNTVYLQMNSLKTEDTAVYYCAAATKGDEDYWGQGTQVTVSS | high polyreactivity
QVQLVESGGGLDQAGGSLRLSCAASGGILVIYAMGWYRQEPGKERELVAAINVSGGSTYYADSVKGRFTISRDNAKNTVYLQMNSLKPEDTAVYYCAALGPYLDYGVQYGYWGQGTQVTVSS | low polyreactivity
QVQLVESGGGLVQAGGSLGLSCAASGSNFHSYAMGWYRQAPGKERELVGAISWCGGSTNYSDSVKGRFTISRDNAKNTVYLQMNSLKPEDTAVYYCAAKEFGSDEYKTGSGYDYWGQCTQVTVSS | low polyreactivity
QVQLVESGGGLVQAGGSLRLSCAASGSIFGDYAMGWYRQAPGKERELVAAITSSGGITYYADSVKGRFTISLDNAKNTVYLQMKSLNPEDTAVYYCAAYGYGSNYRYTGYYYWGQGTQVTVSS | low polyreactivity
QVQLVESGGGLVQAGGSLRLSCAASGYTFVLNAMGWYRQAPGKEREFVAAITWSGGSTYYADSVKGRFTISRDNAKNTVYLQMNSLNPEDTAVYYCAATAHYFGEYDYWGQGTQVTVSS | low polyreactivity
QVQLVESGGGLVQAGGSLRLSCAASGITFRFYALGWYRKAPGKEREFVAAISSRGGRTYYADSVKGRFTISRDHAKNTVYLQMNSLKPEDTAVYYCAADFYYRTVATVTSVARYDYWGQGTQVTVLS | high polyreactivity
QVQLVESGGGLVQAGGSLRLSCAASGSIFGQYVMGWYRQAPGKERELVAAITRRGGTTYYADSVKGRFTISRDNAKNTVYLQMNSLKPEDTAVYYCAARVRVPQTARLHEYWGQGTQVTVSS | high polyreactivity
QVQLVESGGGLVQAGGSLRLSCAASGRIFTWKGMGWYRQAPGKERELVARISSGTRTNYADSVKGRFTISRDNAKNTVYLQMNCLKPEDTAVYYFAAAAKRSDAYHNRRYYWGQGTQVTVSS | high polyreactivity
QVQLVESGGGLVQAGGSLRLSCAASGSIFRYNAMGWYRQAPGKERELVAVIRGTSGDTYYADSVKGRFTISRDNAKNTVYLQMNSLKPEDTAVYYCAAQLAGASYSHSNYSDWFDYWGQGTQVTVSS | low polyreactivity
QVQLVESGGGLVQAGGSLRLSCADSVSTFQPNAMGSYRQAPGKERELVAAISRGGSTKYAYSVKGRITISRDSAKNTVYLQMNSLKPEDTAVYYRAVVFYRHVGYSGYYYWGQGTQVTVSS | low polyreactivity
QVQLVESGGGLVQAGGSLRLSCAASGSTLNRNAMGWYRQAPGKERELVAAIRVSGGSTYYADSVKGRFTISRDNAKNTVYLQMNSLKPEDTAVYYCATRYVRARWYGYWGQGTQVTVSS | high polyreactivity
QVQLVESGGGLVQAGGSLRLSCAASGITFNTYAMGWYRQAPGKERELVAVITWSDGGTYYADSVKGRFTISRDNAKNTVYLQMNSLKPEDTAVYYCAKVLGGLRHGEVLDEYDYWGQGTQVTVSS | low polyreactivity
QVQLVESGGGLVQAGGSLRLSCAASGSTFNINVMGWYRQAPGKERELVASISTGDITYYADSVKGRFTISRDNAKNTVYLQMNSLKPEDTAVYYCNAEDDLYWWVWYAVGEEYWGQGTQVTVSS | low polyreactivity
QVQLVESGGGLVQAGGSLRLSCAASGRIFFRNAMGWYRQAPGKEREFVAAINWSGGSTYYADSVKGRFTISRDNAKNTVYLQMNSLKPEDTAVYYCAARGSRGGRRGATASMDYWGQGTQVTVSS | high polyreactivity
QVQLVESGGGLDQAGGSLRLSCAASGRIFFAYAMGWYRQAPGKEREFVAAISDNDGSTFYADSVKGRFTISRDNAKNPVYLQMNSLKPEDTAVYYCNADLGYVYDYWGQGTQVTVSS | low polyreactivity
QDQLVESGGGLVQAGGSLRLSCAASGSIFDPYTMGWYRQAPGKERELVAAINWSGGSTSYADSVKGRFTISRDNAKNPVYLQMNSLKPEDTAVYYCNADPHGYYGYGYDYWGQGTQVTVSS | low polyreactivity
QVQLVESRGGLVQAGGSLRLSCAACGLIFTRNAMGWYSAAPGKERELVAAISRSGGTTYYADSVKGRFTISRDNAKNTVYLQMNSLKPEDTAVYYCAAGSWWVIGGSVSYWYNYWGQGTQVTVSS | high polyreactivity
QVQLVESGGGIVQAGGSLRLSCAASGRIFQRYTMGWYRQAPGKEREFVAAITYSGGSTHYADSVKGRFTISRDNAKNTVYLQMNSLKPEDTAVYYCNADRYYGRGYGYWGQGTQVTVSS | low polyreactivity
QVQLVESGGGLVQAGGSLRLSCAASGNTFIRYAMGWYRQAPGKEREFVATITKRGGSTYYADSVKGRFTISRDNAKNTVYLQMNSLKPEDTAVYYCARGPSGTPNGNTPYGDNRYNSWGQGTQVTVSS | low polyreactivity

Sequence | polyreactivity (PSR sort gate)
QVQLVESGGGLVQAGGSLRLSCAASGFIFFRNAMGWYRQAPGKERELVAAISSNGGRTYYADSVKGRFTISRDNAKNTVYLQMNSLTPEDTAVYYCAAANPGSEYDYWGQGTQVNVSS | high polyreactivity
QVQLVESGVRLVQAGGSLRLSCAASGFTFRLYAMGWYIQAPGKERELVAATTSGGSTYYADSVKGRFTISRDNAKNTVYLQMNSLKPEDTAVYYCNKLYRTSVEYDYWGQGTQVTVSS | high polyreactivity
QVQLVESGGGLVQAGGSLRLSCAASGSIFPFYAMGWYRQAPGKERELVATISWSGGRTYYADSVKGRFTISRDNAKNTVYLQMNSLKPEDTAVYYCAAGSYHYPNAYYYWGHGTQVTVSS | high polyreactivity
QDQLVESGGGLVQAGGSLRLSCAASGSTLRRYAMGWYRQAPGKERELVAAISGSGDSTYYADSVKGRFTISRDNAKNTVYLQMNSLKPEDTAVYYCNAVYAFNGYDYWGQGTQVTVSS | low polyreactivity
QVQLVESGGGLVQAGGSLRLSCAASGSIFAYAMGWYRQAHGKERELVAAISGGSTYYADSVKGRFTISRENAKNTVYLQMNSLKPEETAVYYCAADLDDERYYWGQGTQVTVSS | low polyreactivity
QVQLVESVGGLVQAGGSLRLSCAASVNIFITNAMGWYRQAPGKERELVADISFSGGSTYYADSVKGRFTISRDTAKNTVYLQMNSLIPEDTAVYYCAARALASVSAHKYDYWGQGTQVTVSS | low polyreactivity
QVQLVESGGGLVQAGGSLRLSCAASGSIFRKYTMGWYRQAPGKERELVAAISRIGGSTYYADSVKGRFTISRDNAKNTVYLQMNSLKPEDTAVYYCAKRGPRSYFQPWYDYWGQGTQVTVSS | high polyreactivity
QVQLVESGGGLVQAGGSLRLSCHASGYTFYVYALGWYRQPPGKERELVAAIGGGSTNYADSVKGRFTISRDNAKNTVYLQMNSLKPEDTAVYYCAARRYYKFYYWGQGTQVTVSS | high polyreactivity
QVQLVESGGGLVQAGGSLRLSCAASGSTFDFYAMGWYRQAPGKERELVARISSGGGRTYYADSVKGRFTISRDNAKNTVYLQMNSLKPEDTAVYYCATDYPWIFGHFLMDYWGQGTQVTVSS | low polyreactivity
QVQLVESGGGLVQAGGSLRLSCAASGITFVPNAMGWYRQAPGKERELVARIDNGVSTNYADSVKGRFTISRDNAKNTVYLQMNSLKPEDTAVYYCAKDGYWGDWDLYYWGQGTQVTVSS | low polyreactivity
QVQLVESGGGLVQAGGSLRLSCAASGSIFQSNAMGWYRQAPAKESELVAAISSSGGRTYYADSVKGRFTISRDNAKNTVYFQMNSLKPEDTAVYYCAALGYPDGGWGLGTQVTVSS | low polyreactivity
QDQLVESGGGLVQAGGSLLLSCAASGLTVGRYAMGWYRQAPGKERELVAVINGSGGNTYYADSVKGRFTISRDHATNTVYLQMHSLKPEDTAVYYCNVDDWGQGTQVTVSS | low polyreactivity
QVQLEESGGGLVQAGGSLRLSCAASGSTFTAYAMGWYREAPGKEMELVAAINWSGGTTYYADSVKGRFTISRDNAKNTVYLQMNSLKPEDTAVYYCAVDGNFFGEVRPYDYWGQGTQVTVSS | low polyreactivity
QVQLVESGGGLVQAGGSLRLSCAASGRIFPYNAMGWYRQAPGKERELVASIRTGGGRTRYADSVKGRFTISRDNAKNTVYLQMNSLKPEDTAVYYCNADSSPRWYHYPTRYDYWGQGTQVTVSS | low polyreactivity
QVQLVESGGGLVQAGGSLRLSCAASGLTFYQNAMGWYRQAPGKERELVAAISSIGGTYYADSVKGRFTISRDNAKNTVYLQMNSLKPEDTAVYYCAKRSRYPYYPYGYWGQGTQVTVSS | high polyreactivity
QVQLVESGGGLVQAGGSLRLSCAASGSIFTIYAMGWYRQAPGKERELVAAIRESSGSTYYADSVKGRFTISRDYAKNTVYFQINSLKPEDTAVYYCAADINYSSYDYWGQGTQVTVSS | high polyreactivity
QVQLVESGGGLVQAGGSLRLSCAASGYIFYFYAMGWYRQAPGKERELVAAISSSGGSTRYADSVKGRFTISRDNAKNTVYLQMNSLKPEDTAVYYCAASHWSGAAWYYYWGQGTQVSVSS | high polyreactivity
QVQLVESGGGLVQAGGSLRLSCAASGRTFDRYAMGWYRQAPGKERELVAAISRGGSTNYADSVKGRFTISRDNAKNTVYLQMNSLKPEDTAVYYCAARVSFLHLRRAYDYWGQGTQVTVSS | high polyreactivity
QVQLVESGGGLVQAGGSLRLSCAASGSNFFLYAMGWYRQAPGKEREFVAAITGTADSTYYADSVKGRFTISRDDAKNTVYLQMNSLKPEDTAVYYCATDYWSSVKLDDYWGQGTQVTVSS | low polyreactivity
QVQLVESGGGLVQAGGSLRLSCAASGSIFYKNAMGWYRQAPGKERELVAVISWSGGSTSYADSVKGRFTISRDNAKNTVYLQMNSLKPEDTAVYYCAKEYFTDYLYEYDYWGQGTQVTVSS | low polyreactivity
PVQLVESGGGLVQAGGSLRLSCAASGITFYRYMGWYRQAPGKERELVASITGRGGSTYYADSVKGRFTISRDNAKNTVYLQMNSLKPEDTAVYYCAAVFPTKSSTWYDFWGEGTQVTVSS | high polyreactivity
